First the molecules themselves.
B1: glmS ribozyme (parent)
chain: AUAAAAGCGCCAGAACUACAGAAAUGUAGUUGACGAGGAGGAGGUUUAUCGAAUUUUCGGCGGAUGCCUCCAAA

Holding throughout (settings): with glucosamine-6-phosphate
Data set [1] covers variants of B1. Description: self-cleavage kobs at 40 uM GlcN6P; higher = faster cleavage; RNA array. In outline:
(§1)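 Weighted Michaelis–Menten fits across concentrations supplied kcat and KM, based on kobs from one- or two-exponential decay fits to normalised per-tile medians. The data came from barcoded ribozyme variants transcribed in situ by E. coli RNA polymerase on sequenced MiSeq chips and tracked at 37 °C by a hybridised Cy3 probe. Glucosamine-6-phosphate (40 μM to 10 mM) in HEPES/KCl/Mg(OAc)2 buffer was flowed in.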

Data set [2] covers variants of B1. The data set is described as follows: self-cleavage kobs at 160 uM GlcN6P; higher = faster cleavage; RNA array. In outline:
as §1

Variants of B1 are the subject of data set [3]. The data set is described as follows: self-cleavage kobs at 640 uM GlcN6P; higher = faster cleavage; RNA array. An outline of the steps: as §1
The variants in data set [4] derive from B1. Description: self-cleavage kobs at 10000 uM GlcN6P; higher = faster cleavage; RNA array. In outline: as §1
The variants in data set [5] derive from B1. Description: self-cleavage kobs at 2500 uM GlcN6P; higher = faster cleavage; RNA array. In outline: as §1

± gives the standard error. This sample holds only a part of the variants without activity. Some results are limits rather than exact numbers.

Consider G60A G66U, for which, in the data set with glucosamine-6-phosphate [1], the “self-cleavage kobs at 40 uM GlcN6P” value was below 1e-05 s⁻¹. Further, the “self-cleavage kobs at 160 uM GlcN6P” value in the data set with glucosamine-6-phosphate [2] was below 1e-05 s⁻¹. The “self-cleavage kobs at 640 uM GlcN6P” value in the data set with glucosamine-6-phosphate [3] was below 1e-05 s⁻¹. Besides, the “self-cleavage kobs at 10000 uM GlcN6P” value in the data set with glucosamine-6-phosphate [4] was below 1e-05 s⁻¹.
As for G60A G66A, the “self-cleavage kobs at 40 uM GlcN6P” value with glucosamine-6-phosphate [1] is below 1e-05 s⁻¹. Besides, the “self-cleavage kobs at 160 uM GlcN6P” value in the data set with glucosamine-6-phosphate [2] was below 1e-05 s⁻¹.
On to G44C U57C, for which the “self-cleavage kobs at 40 uM GlcN6P” value in the data set with glucosamine-6-phosphate [1] is below 1e-05 s⁻¹. Also, the “self-cleavage kobs at 160 uM GlcN6P” value with glucosamine-6-phosphate [2] was below 1e-05 s⁻¹. For the same variant, the “self-cleavage kobs at 640 uM GlcN6P” value in the data set with glucosamine-6-phosphate [3] was below 1e-05 s⁻¹. Further, the “self-cleavage kobs at 2500 uM GlcN6P” value with glucosamine-6-phosphate [5] was below 1e-05 s⁻¹. In addition, the “self-cleavage kobs at 10000 uM GlcN6P” value in the data set with glucosamine-6-phosphate [4] is below 1e-05 s⁻¹.
Take G13U A53G G63A C68U: the “self-cleavage kobs at 40 uM GlcN6P” value with glucosamine-6-phosphate [1] is below 1e-05 s⁻¹. The “self-cleavage kobs at 10000 uM GlcN6P” value with glucosamine-6-phosphate [4] is below 1e-05 s⁻¹.
G40U G44U: in the data set with glucosamine-6-phosphate [1], the “self-cleavage kobs at 40 uM GlcN6P” value is below 1e-05 s⁻¹. Also, the “self-cleavage kobs at 160 uM GlcN6P” value in the data set with glucosamine-6-phosphate [2] is below 1e-05 s⁻¹. In addition, the “self-cleavage kobs at 640 uM GlcN6P” value with glucosamine-6-phosphate [3] is below 1e-05 s⁻¹.
On to C8U G9C G35U C61G, for which, in the data set with glucosamine-6-phosphate [1], the “self-cleavage kobs at 40 uM GlcN6P” value is below 1e-05 s⁻¹.
On the same count and under the same terms, the same measure for A6U G13C G63U A64G: below 1e-05 s⁻¹.
Regarding A12U A53G, in the data set with glucosamine-6-phosphate [1], the “self-cleavage kobs at 40 uM GlcN6P” value was 0.00255 ± 0.00025 s⁻¹. Also, the “self-cleavage kobs at 160 uM GlcN6P” value in the data set with glucosamine-6-phosphate [2] stood at 0.00496 ± 0.00086 s⁻¹. For the same variant, in the data set with glucosamine-6-phosphate [3], the “self-cleavage kobs at 640 uM GlcN6P” value worked out at 0.0163 ± 0.0025 s⁻¹. The “self-cleavage kobs at 10000 uM GlcN6P” value with glucosamine-6-phosphate [4] is 0.125 ± 0.023 s⁻¹.
Turning to G43C U46G, in the data set with glucosamine-6-phosphate [1], the “self-cleavage kobs at 40 uM GlcN6P” value is below 1e-05 s⁻¹. Moreover, the “self-cleavage kobs at 160 uM GlcN6P” value with glucosamine-6-phosphate [2] is below 1e-05 s⁻¹. Moreover, in the data set with glucosamine-6-phosphate [3], the “self-cleavage kobs at 640 uM GlcN6P” value was below 1e-05 s⁻¹. In the data set with glucosamine-6-phosphate [5], the “self-cleavage kobs at 2500 uM GlcN6P” value is below 1e-05 s⁻¹.
Turning to A48U C50U C58A, the “self-cleavage kobs at 40 uM GlcN6P” value in the data set with glucosamine-6-phosphate [1] was below 1e-05 s⁻¹. In the data set with glucosamine-6-phosphate [2], the “self-cleavage kobs at 160 uM GlcN6P” value is below 1e-05 s⁻¹. The “self-cleavage kobs at 640 uM GlcN6P” value with glucosamine-6-phosphate [3] is below 1e-05 s⁻¹.
As for U46C A48G C50A C71G, the “self-cleavage kobs at 40 uM GlcN6P” value in the data set with glucosamine-6-phosphate [1] was below 1e-05 s⁻¹.
Regarding A6G G29C U45G C70G, in the data set with glucosamine-6-phosphate [1], the “self-cleavage kobs at 40 uM GlcN6P” value was below 1e-05 s⁻¹.
Turning to G32C U49C, the “self-cleavage kobs at 40 uM GlcN6P” value with glucosamine-6-phosphate [1] is below 1e-05 s⁻¹. The “self-cleavage kobs at 160 uM GlcN6P” value with glucosamine-6-phosphate [2] was below 1e-05 s⁻¹.
In the case of A36C G37U G51U, the “self-cleavage kobs at 40 uM GlcN6P” value with glucosamine-6-phosphate [1] is below 1e-05 s⁻¹.
As to G9U A52G, in the data set with glucosamine-6-phosphate [1], the “self-cleavage kobs at 40 uM GlcN6P” value is below 1e-05 s⁻¹. For the same variant, in the data set with glucosamine-6-phosphate [2], the “self-cleavage kobs at 160 uM GlcN6P” value is below 1e-05 s⁻¹. For the same variant, in the data set with glucosamine-6-phosphate [4], the “self-cleavage kobs at 10000 uM GlcN6P” value is below 1e-05 s⁻¹.
With A42C G59C C67G, in the data set with glucosamine-6-phosphate [1], the “self-cleavage kobs at 40 uM GlcN6P” value is below 1e-05 s⁻¹. In addition, the “self-cleavage kobs at 2500 uM GlcN6P” value with glucosamine-6-phosphate [5] is below 1e-05 s⁻¹. Moreover, the “self-cleavage kobs at 10000 uM GlcN6P” value in the data set with glucosamine-6-phosphate [4] was below 1e-05 s⁻¹.
Take C8G C16A A42U U65A: the “self-cleavage kobs at 40 uM GlcN6P” value with glucosamine-6-phosphate [1] was below 1e-05 s⁻¹. The “self-cleavage kobs at 10000 uM GlcN6P” value in the data set with glucosamine-6-phosphate [4] is below 1e-05 s⁻¹.
Consider U31G G38U C61U C71U, for which the “self-cleavage kobs at 40 uM GlcN6P” value with glucosamine-6-phosphate [1] is below 1e-05 s⁻¹.
For the variant A33G G40U G59U, the “self-cleavage kobs at 40 uM GlcN6P” value in the data set with glucosamine-6-phosphate [1] is below 1e-05 s⁻¹. Besides, the “self-cleavage kobs at 160 uM GlcN6P” value in the data set with glucosamine-6-phosphate [2] is below 1e-05 s⁻¹. For the same variant, the “self-cleavage kobs at 640 uM GlcN6P” value with glucosamine-6-phosphate [3] is below 1e-05 s⁻¹. Further, the “self-cleavage kobs at 2500 uM GlcN6P” value with glucosamine-6-phosphate [5] was below 1e-05 s⁻¹.
Regarding U49C A52U, the “self-cleavage kobs at 40 uM GlcN6P” value with glucosamine-6-phosphate [1] was below 1e-05 s⁻¹. Further, the “self-cleavage kobs at 160 uM GlcN6P” value with glucosamine-6-phosphate [2] is below 1e-05 s⁻¹. Besides, in the data set with glucosamine-6-phosphate [3], the “self-cleavage kobs at 640 uM GlcN6P” value was below 1e-05 s⁻¹. In addition, in the data set with glucosamine-6-phosphate [5], the “self-cleavage kobs at 2500 uM GlcN6P” value was below 1e-05 s⁻¹. In the data set with glucosamine-6-phosphate [4], the “self-cleavage kobs at 10000 uM GlcN6P” value is below 1e-05 s⁻¹.
As to G9A A12U G13C G40C, in the data set with glucosamine-6-phosphate [1], the “self-cleavage kobs at 40 uM GlcN6P” value was below 1e-05 s⁻¹. Further, the “self-cleavage kobs at 10000 uM GlcN6P” value with glucosamine-6-phosphate [4] was below 1e-05 s⁻¹.
Consider U2G A33G, for which the “self-cleavage kobs at 40 uM GlcN6P” value with glucosamine-6-phosphate [1] was below 1e-05 s⁻¹. Also, in the data set with glucosamine-6-phosphate [4], the “self-cleavage kobs at 10000 uM GlcN6P” value was below 1e-05 s⁻¹.
As for C10A G51C, the “self-cleavage kobs at 40 uM GlcN6P” value in the data set with glucosamine-6-phosphate [1] was below 1e-05 s⁻¹. Besides, the “self-cleavage kobs at 640 uM GlcN6P” value with glucosamine-6-phosphate [3] was below 1e-05 s⁻¹. In the data set with glucosamine-6-phosphate [4], the “self-cleavage kobs at 10000 uM GlcN6P” value is below 1e-05 s⁻¹.
As for A14G U54A G59A, the “self-cleavage kobs at 40 uM GlcN6P” value in the data set with glucosamine-6-phosphate [1] is below 1e-05 s⁻¹. For the same variant, the “self-cleavage kobs at 2500 uM GlcN6P” value with glucosamine-6-phosphate [5] was 8.37e-05 ± 2.7e-05 s⁻¹. In addition, the “self-cleavage kobs at 10000 uM GlcN6P” value in the data set with glucosamine-6-phosphate [4] is 0.000121 ± 3.2e-05 s⁻¹.
Consider A48U G62U, for which, in the data set with glucosamine-6-phosphate [1], the “self-cleavage kobs at 40 uM GlcN6P” value is below 1e-05 s⁻¹. For the same variant, in the data set with glucosamine-6-phosphate [2], the “self-cleavage kobs at 160 uM GlcN6P” value is below 1e-05 s⁻¹. Moreover, in the data set with glucosamine-6-phosphate [3], the “self-cleavage kobs at 640 uM GlcN6P” value is below 1e-05 s⁻¹. For the same variant, the “self-cleavage kobs at 2500 uM GlcN6P” value with glucosamine-6-phosphate [5] was below 1e-05 s⁻¹. Besides, the “self-cleavage kobs at 10000 uM GlcN6P” value in the data set with glucosamine-6-phosphate [4] is below 1e-05 s⁻¹.

The record behind these values is the supplement of paper PMC7125110.
